Experimental data reported in patent US12391751B2, “Antibody against advanced glycation end products and use thereof” (Bloom Technology Corporation, priority 2018, dated 2025).

Columns and labels:
[1] = tested on: CD31; assay: Endothelial-to-mesenchymal transition inhibition test, real-time PCR (Example 15); assay type: cell-based, human; conditions: HUVEC; antibody pre-reacted with Glycer-AGEs-BSA
Protocol: (§1) 10 μL of Glycer-AGEs-BSA (10 mg/mL) prepared in Example 1, PBS, and 90 μL of SJ-5 (10 mg/mL) or a control antibody (10 mg/mL) were added to a 1.5 mL tube (Watson). Alternatively, 90 μL of a PBS solution of control BSA (10 mg/mL) was added. These solutions were left standing at room temperature for 10 minutes. Then, a supernatant was recovered by centrifugation at 14000 rpm for 15 minutes using a centrifuge (Thermo Fisher Scientific Inc.).
(§2) HUVEC was cultured in a 10 cm dish using 10 mL of a medium for HUVEC.
(§3) The cultured HUVEC was washed with 10 mL of PBS. Then, 1 mL of trypsin-EDTA was added thereto and left standing at room temperature for 3 minutes. HUVEC thus left standing was confirmed to be detached from the dish, and trypsin-EDTA was neutralized by the addition of 10 mL of a medium for HUVEC. After the neutralization, the whole amount was transferred to a 50 mL tube and centrifuged at 1500 rpm for 3 minutes using a centrifuge.
(§4) After the centrifugation, the supernatant was discarded, and precipitated cells were resuspended by the addition of 1 mL of a medium for HUVEC. A 10 μL aliquot from the resuspension was mixed with 10 μL of Trypan Blue, and 10 μL thereof was added to a counting chamber. Then, the number of live cells was counted in Auto Cell Counter EVE. The cell suspension was diluted into 2.5×10^5 cells/mL with a medium for HUVEC and inoculated at 400 μL/well to the Matrigel prepared in (1). After the inoculation, each reaction solution prepared in (2) was added at 100 μL/well, followed by culture for 8 hours in a CO2 incubator.
(§5) Each well was washed three times with 1 mL of PBS, and Cell Recovery Solution (Corning Inc.) was added at 500 μL/well.
(§6) The cells and the Matrigel matrix were scraped off using Blue Chip (Watson), recovered into a 1.5 mL tube, and transferred to the 1.5 mL tube after rinsing of each well again with 500 μL of Cell Recovery Solution. The 1.5 mL tube was mixed by inversion five times and then left standing on ice for 1 hour to confirm that the Matrigel matrix was completely degraded. After the Matrigel matrix degradation, a supernatant was discarded by centrifugation at 800 rpm at 4° C. Precipitated cells were gently suspended in 1 mL of ice-cooled PBS and centrifuged at 800 rpm at 4° C. to discard a supernatant. Precipitated cells were gently suspended again in 1 mL of ice-cooled PBS and centrifuged at 800 rpm at 4° C.
(§7) 125 μL of CellAmp Washing Buffer attached to the kit was added to the cells precipitated by centrifugation, and mixed. […]
(§8) After the addition, real-time PCR was performed with QuantStudio™ 12K Flex real-time PCR system (Thermo Fisher Scientific Inc.) to quantify gene expression levels. […]

[2] = tested on: α-SMA; assay: as above; assay type: cell-based, human; conditions: HUVEC; antibody pre-reacted with Glycer-AGEs-BSA
Protocol: as §1, §2, §3, §4, §5, §6, §7, §8

[3] = target: T1, GAL13-BSA (Bos taurus, UniProt P02769); assay: Reactivity of novel monoclonal antibody by direct ELISA (Example 5); assay type: binding; conditions: immobilized GAL13-BSA 1 μg/mL, POD-labeled antibody dilution series from 4 μg/mL
T1 construct: purchased Sigma-Aldrich Co. LLC
Protocol: BSA modified with the novel structure derived from Glycer-AGEs (GAL13-BSA) was added at 100 μL/well with a concentration of 1 μg/mL and immobilized overnight at 4° C. The plate was washed three times with PBS containing 0.05% (v/v) Tween 20 (PBS-T) and then blocked with PBS-T containing 0.5% (w/v) gelatin for 1 hour. The POD-labeled novel monoclonal antibody SJ-5 prepared in Example 4 and the anti-glyceraldehyde-derived AGEs polyclonal antibody as a control were serially diluted into 4-fold dilutions from 4 μg/mL to 0.06254 μg/mL to prepare dilution series, which were then added at 100 μL/well to the antigen-immobilized plate and left standing for 1 hour. After washing, an o-phenylenediamine solution (100 μL) prepared into 0.5 mg/mL with a 0.1 M citrate-phosphate buffer solution (pH 5.0) containing 0.02% (w/v) hydrogen peroxide was added to each well and left standing at 25° C. for 10 minutes. Then, color reaction was terminated by the addition of a 1 M sulfuric acid solution (50 μL) to each well. Then, absorbance at 490 nm was measured with a microplate reader.

[4] = target: A-peak-BSA (Bos taurus, UniProt P02769); assay: Dissociation constant measurement of PB-1, Biacore T200 (Example 26); conditions: Biacore T200, CM5; ligand A-peak-BSA; PB-1 0.1953 to 50 nM; 1:1 binding model
Protocol: The dissociation constant (Kd value) of the monoclonal antibody PB-1 was measured by the following approach: A-peak-BSA was diluted with a 10 mM sodium acetate solution (pH 5.0) to prepare a ligand solution with a final concentration of 50 μg/mL. Biacore T200 (GE Healthcare Japan Corp.) was used for the immobilization of the ligand and the calculation of the KD value. The ligand solution was immobilized (final amount immobilized: 72 RU) onto sensor chip CM5 (GE Healthcare Japan Corp.) using an amine coupling kit (GE Healthcare Japan Corp.). Subsequently, PB-1 antibody dilution solutions from 0.1953 to 50 nM were prepared with a running buffer solution HBS-P+ (GE Healthcare Japan Corp.), and a sensorgram was obtained.
1:1 binding was adopted to a fitting model, and the sensorgram was analyzed.

T1 sequence (P02769 25-607): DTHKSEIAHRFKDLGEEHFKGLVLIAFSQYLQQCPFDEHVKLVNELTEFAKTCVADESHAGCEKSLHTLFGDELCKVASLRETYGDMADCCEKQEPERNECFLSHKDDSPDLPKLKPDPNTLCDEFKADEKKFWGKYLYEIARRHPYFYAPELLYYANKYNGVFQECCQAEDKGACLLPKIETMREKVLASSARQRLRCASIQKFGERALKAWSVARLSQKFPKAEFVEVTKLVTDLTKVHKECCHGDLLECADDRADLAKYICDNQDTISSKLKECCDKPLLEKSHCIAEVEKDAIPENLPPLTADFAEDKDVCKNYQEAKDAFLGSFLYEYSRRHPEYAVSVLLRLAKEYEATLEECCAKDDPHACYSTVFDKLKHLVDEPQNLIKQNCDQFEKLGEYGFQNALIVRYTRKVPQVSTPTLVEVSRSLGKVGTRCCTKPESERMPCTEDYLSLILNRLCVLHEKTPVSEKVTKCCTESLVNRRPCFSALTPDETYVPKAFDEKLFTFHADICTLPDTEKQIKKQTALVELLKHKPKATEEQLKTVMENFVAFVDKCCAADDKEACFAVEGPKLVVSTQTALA
Sequence of A-peak-BSA (P02769 25-607): as above

| Molecule | suppression of CD31 decrease caused by Glycer-AGEs-BSA [1] | suppression of α-SMA increase caused by Glycer-AGEs-BSA [2] | reactivity with GAL13-BSA (absorbance at 490 nm) [3] | Kd [4] [nM] |
| --- | --- | --- | --- | --- |
| SJ-5: mouse monoclonal antibody raised against GAL13-MSA; heavy-chain variable region SEQ ID NO 4, light-chain variable region SEQ ID NO 8 (antibody, listed as Mus musculus, V domains shown) VH: EVMLVESGGRLVKPGGSLKLSCAASGFTFSSYGMSWVRQTPEKRLEWVATISGGGSYTYYPDSVKGRFTISRDNVKNNLYLQMSSLRSEDTALYYCARRGAYGDYGWFAYWGQGTLVTVSA VL: DIVLTQSPATLSVTPGDSVSLSCRASQSINNNLHWYQQKSHESPRLLIKCASQSISGIPSRFSGSGSGTDFTLSINSVETEDFGMYFCQQSNSWPLTFGAGTKLELK | suppressible | suppressible | react favorably | – |
| PB-1: mouse monoclonal antibody raised against A-peak-BSA; heavy-chain variable region SEQ ID NO 18, light-chain variable region SEQ ID NO 22 (antibody, listed as Mus musculus, V domains shown) VH: EVRLQQSGPELVKPGTSVKISCKASGYSFTGYYMHWVKQSPVKSLEWIGRIIPYNGATSYNQNFKDKASLTVDKSSRTAYMDLHSLTSEDSAVYYCARSRYYGRAPYYFDYWGQGTTLTVSS VL: DVVVTQTPLSLPVSLGDQASISCRSSQSIVHSNGNTYLEWYLQKPGQSPKLLIYKVSNRFSGVPDRISGSGSGTDFTLKISRVEAGDLGVYSCFQGSHVPFTFGSGTKLEIK | – | – | – | 4.15 |
